Values joined by “and” are separate entries in the source; they are usually repeats but may differ in a detail not shown here. Equal entries are not always repeated.
B1: CLM-1 (protein, UniProt Q8TDQ1 20-290, looked up)
CMRF35-like molecule 1: TQITGPTTVNGLERGSLTVQCVYRSGWETYLKWWCRGAIWRDCKILVKTSGSEQEVKRDRVSIKDNQKNRTFTVTMEDLMKTDADTYWCGIEKTGNDLGVTVQVTIDPAPVTQEETSSSPTLTGHHLDNRHKLLKLSVLLPLIFTILLLLLVAASLLAWRMMKYQQKAAGMSPEQVLQPLEGDLCYADLTLQLAGTSPQKATTKLSSAQVDQVEVEYVTMASLPKEDISYASLTLGAEDQEPTYCNMGHLSSHLPGRGPEEPTEYSTISRP
B2: CLEC1A (protein, UniProt Q8NC01 1-280, looked up)
C-type lectin domain family 1 …: MQAKYSSTRDMLDDDGDTTMSLHSQGSATTRHPEPRRTEHRAPSSTWRPVALTLLTLCLVLLIGLAALGLLFFQYYQLSNTGQDTISQMEERLGNTSQELQSLQVQNIKLAGSLQHVAEKLCRELYNKAGAHRCSPCTEQWKWHGDNCYQFYKDSKSWEDCKYFCLSENSTMLKINKQEDLEFAASQSYSEFFYSYWTGLLRPDSGKAWLWMDGTPFTSELFHIIIDVTSPRSRDCVAILNGMIFSKDCKELKRCVCERRAGMVKPESLHVPPETLGEGD
B3: TNFRSF14 (protein, UniProt Q92956 39-283, looked up)
Tumor necrosis factor …: LPSCKEDEYPVGSECCPKCSPGYRVKEACGELTGTVCEPCPPGTYIAHLNGLSKCLQCQMCDPAMGLRASRNCSRTENAVCGCSPGHFCIVQDGDHCAACRAYATSSPGQRVQKGGTESQDTLCQNCPPGTFSPNGTLEECQHQTKCSWLVTKAGAGTSSSHWVWWFLSGSLVIVIVCSTVGLIICVKRRKPRGDVVKVIVSVQRKRQEAEGEATVIEALQAPPDVTTVAVEETIPSFTGRSPNH
B4: ICAM1 (protein, UniProt P05362 28-532, looked up)
Intercellular adhesion …: QTSVSPSKVILPRGGSVLVTCSTSCDQPKLLGIETPLPKKELLLPGNNRKVYELSNVQEDSQPMCYSNCPDGQSTAKTFLTVYWTPERVELAPLPSWQPVGKNLTLRCQVEGGAPRANLTVVLLRGEKELKREPAVGEPAEVTTTVLVRRDHHGANFSCRTELDLRPQGLELFENTSAPYQLQTFVLPATPPQLVSPRVLEVDTQGTVVCSLDGLFPVSEAQVHLALGDQRLNPTVTYGNDSFSAKASVSVTAEDEGTQRLTCAVILGNQSQETLQTVTIYSFPAPNVILTKPEVSEGTEVTVKCEAHPRAKVTLNGVPAQPLGPRAQLLLKATPEDNGRSFSCSATLEVAGQLIHKNQTRELRVLYGPRLDERDCPGNWTWPENSQQTPMCQAWGNPLPELKCLKDGTFPLPIGESVTVTRDLEGTYLCRARSTQGEVTRKVTVNVLSPRYEIVIITVVAAAVIMGTAGLSTYLYNRQRKIKKYRLQQAQKGTPMKPNTQATPP
B5: KIM1 (protein, UniProt Q96D42 21-364, looked up)
Hepatitis A virus cellular …: SVKVGGEAGPSVTLPCHYSGAVTSMCWNRGSCSLFTCQNGIVWTNGTHVTYRKDTRYKLLGDLSRRDVSLTIENTAVSDSGVYCCRVEHRGWFNDMKITVSLEIVPPKVTTTPIVTTVPTVTTVRTSTTVPTTTTVPMTTVPTTTVPTTMSIPTTTTVLTTMTVSTTTSVPTTTSIPTTTSVPVTTTVSTFVPPMPLPRQNHEPVATSPSSPQPAETHPTTLQGAIRREPTSSPLYSYTTDGNDTVTESSDGLWNNNQTQLFLEHSLLTANTTKGIYAGVCISVLVLLALLGVIIAKKYFFKKEVQQLSVSFSSLQIKALQNAVEKEVQAEDNIYIENSLYATD
B6: PRKCQ (protein, UniProt Q04759 1-706, looked up)
Protein kinase C theta type: MSPFLRIGLSNFDCGSCQSCQGEAVNPYCAVLVKEYVESENGQMYIQKKPTMYPPWDSTFDAHINKGRVMQIIVKGKNVDLISETTVELYSLAERCRKNNGKTEIWLELKPQGRMLMNARYFLEMSDTKDMNEFETEGFFALHQRRGAIKQAKVHHVKCHEFTATFFPQPTFCSVCHEFVWGLNKQGYQCRQCNAAIHKKCIDKVIAKCTGSAINSRETMFHKERFKIDMPHRFKVYNYKSPTFCEHCGTLLWGLARQGLKCDACGMNVHHRCQTKVANLCGINQKLMAEALAMIESTQQARCLRDTEQIFREGPVEIGLPCSIKNEARPPCLPTPGKREPQGISWESPLDEVDKMCHLPEPELNKERPSLQIKLKIEDFILHKMLGKGSFGKVFLAEFKKTNQFFAIKALKKDVVLMDDDVECTMVEKRVLSLAWEHPFLTHMFCTFQTKENLFFVMEYLNGGDLMYHIQSCHKFDLSRATFYAAEIILGLQFLHSKGIVYRDLKLDNILLDKDGHIKIADFGMCKENMLGDAKTNTFCGTPDYIAPEILLGQKYNHSVDWWSFGVLLYEMLIGQSPFHGQDEEELFHSIRMDNPFYPRWLEKEAKDLLVKLFVREPEKRLGVRGDIRQHPLFREINWEELERKEIDPPFRPKVKSPFDCSNFDKEFLNEKPRLSFADRALINSMDQNMFRNFSFMNPGMERLIS
B7: DAB2 (protein, UniProt P98082 2-770, looked up)
Disabled homolog 2: SNEVETSATNGQPDQQAAPKAPSKKEKKKGPEKTDEYLLARFKGDGVKYKAKLIGIDDVPDARGDKMSQDSMMKLKGMAAAGRSQGQHKQRIWVNISLSGIKIIDEKTGVIEHEHPVNKISFIARDVTDNRAFGYVCGGEGQHQFFAIKTGQQAEPLVVDLKDLFQVIYNVKKKEEEKKKIEEASKAVENGSEALMILDDQTNKLKSGVDQMDLFGDMSTPPDLNSPTESKDILLVDLNSEIDTNQNSLRENPFLTNGITSCSLPRPTPQASFLPENAFSANLNFFPTPNPDPFRDDPFTQPDQSTPSSFDSLKSPDQKKENSSSSSTPLSNGPLNGDVDYFGQQFDQISNRTGKQEAQAGPWPFSSSQTQPAVRTQNGVSEREQNGFSVKSSPNPFVGSPPKGLSIQNGVKQDLESSVQSSPHDSIAIIPPPQSTKPGRGRRTAKSSANDLLASDIFAPPVSEPSGQASPTGQPTALQPNPLDLFKTSAPAPVGPLVGLGGVTVTLPQAGPWNTASLVFNQSPSMAPGAMMGGQPSGFSQPVIFGTSPAVSGWNQPSPFAASTPPPVPVVWGPSASVAPNAWSTTSPLGNPFQSNIFPAPAVSTQPPSMHSSLLVTPPQPPPRAGPPKDISSDAFTALDPLGDKEIKDVKEMFKDFQLRQPPAVPARKGEQTSSGTLSAFASYFNSKVGIPQENADHDDFDANQLLNKINEPPKPAPRQVSLPVTKSTDNAFENPFFKDSFGSSQASVASSQPVSSEMYRDPFGNPFA
B8: ARHGAP1 (protein, UniProt Q07960 1-439, looked up)
Rho GTPase-activating protein …: MDPLSELQDDLTLDDTSEALNQLKLASIDEKNWPSDEMPDFPKSDDSKSSSPELVTHLKWDDPYYDIARHQIVEVAGDDKYGRKIIVFSACRMPPSHQLDHSKLLGYLKHTLDQYVESDYTLLYLHHGLTSDNKPSLSWLRDAYREFDRKYKKNIKALYIVHPTMFIKTLLILFKPLISFKFGQKIFYVNYLSELSEHVKLEQLGIPRQVLKYDDFLKSTQKSPATAPKPMPPRPPLPNQQFGVSLQHLQEKNPEQEPIPIVLRETVAYLQAHALTTEGIFRRSANTQVVREVQQKYNMGLPVDFDQYNELHLPAVILKTFLRELPEPLLTFDLYPHVVGFLNIDESQRVPATLQVLQTLPEENYQVLRFLTAFLVQISAHSDQNKMTNTNLAVVFGPNLLWAKDAAITLKAINPINTFTKFLLDHQGELFPSPDPSGL
B9: APBB1IP (protein, UniProt Q7Z5R6 1-666, looked up)
Amyloid beta A4 precursor …: MGESSEDIDQMFSTLLGEMDLLTQSLGVDTLPPPDPNPPRAEFNYSVGFKDLNESLNALEDQDLDALMADLVADISEAEQRTIQAQKESLQNQHHSASLQASIFSGAASLGYGTNVAATGISQYEDDLPPPPADPVLDLPLPPPPPEPLSQEEEEAQAKADKIKLALEKLKEAKVKKLVVKVHMNDNSTKSLMVDERQLARDVLDNLFEKTHCDCNVDWCLYEIYPELQIERFFEDHENVVEVLSDWTRDTENKILFLEKEEKYAVFKNPQNFYLDNRGKKESKETNEKMNAKNKESLLEESFCGTSIIVPELEGALYLKEDGKKSWKRRYFLLRASGIYYVPKGKTKTSRDLACFIQFENVNIYYGTQHKMKYKAPTDYCFVLKHPQIQKESQYIKYLCCDDTRTLNQWVMGIRIAKYGKTLYDNYQRAVAKAGLASRWTNLGTVNAAAPAQPSTGPKTGTTQPNGQIPQATHSVSAVLQEAQRHAETSKDKKPALGNHHDPAVPRAPHAPKSSLPPPPPVRRSSDTSGSPATPLKAKGTGGGGLPAPPDDFLPPPPPPPPLDDPELPPPPPDFMEPPPDFVPPPPPSYAGIAGSELPPPPPPPPAPAPAPVPDSARPPPAVAKRPPVPPKRQENPGHPGGAGGGEQDFMSDLMKALQKKRGNVS
B10: LYN (protein, UniProt P07948 2-512, looked up)
Tyrosine-protein kinase Lyn: GCIKSKGKDSLSDDGVDLKTQPVRNTERTIYVRDPTSNKQQRPVPESQLLPGQRFQTKDPEEQGDIVVALYPYDGIHPDDLSFKKGEKMKVLEEHGEWWKAKSLLTKKEGFIPSNYVAKLNTLETEEWFFKDITRKDAERQLLAPGNSAGAFLIRESETLKGSFSLSVRDFDPVHGDVIKHYKIRSLDNGGYYISPRITFPCISDMIKHYQKQADGLCRRLEKACISPKPQKPWDKDAWEIPRESIKLVKRLGAGQFGEVWMGYYNNSTKVAVKTLKPGTMSVQAFLEEANLMKTLQHDKLVRLYAVVTREEPIYIITEYMAKGSLLDFLKSDEGGKVLLPKLIDFSAQIAEGMAYIERKNYIHRDLRAANVLVSESLMCKIADFGLARVIEDNEYTAREGAKFPIKWTAPEAINFGCFTIKSDVWSFGILLYEIVTYGKIPYPGRTNADVMTALSQGYRMPRVENCPDELYDIMKMCWKEKAEERPTFDYLQSVLDDFYTATEGQYQQQP
B11: TNFRSF6B (protein, UniProt O95407 30-300, looked up)
Tumor necrosis factor …: VAETPTYPWRDAETGERLVCAQCPPGTFVQRPCRRDSPTTCGPCPPRHYTQFWNYLERCRYCNVLCGEREEEARACHATHNRACRCRTGFFAHAGFCLEHASCPPGAGVIAPGTPSQNTQCQPCPPGTFSASSSSSEQCQPHRNCTALGLALNVPGSSSHDTLCTSCTGFPLSTRVPGAEECERAVIDFVAFQDISIKRLQRLLQALEAPEGWGPTPRAGRAALQLKLRRRLTELLGAQDGALLVRLLQALRVARMPGLERSVRERFLPVH

system: plasma proteins; test: Plasma proteins modulated between baseline and day 28 in responders (CR, VGPR, PR; n = 19), Example 6 (Table 13); type: in vivo, human; details: plasma protein (OLINK NPX); responders (CR, VGPR, PR; n = 19); itacitinib 200 mg or 300 mg QD with corticosteroids; day 28 vs baseline
Outline: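 Longitudinal comparison, day 28 versus baseline, with steroid-naive (N=10) and steroid-refractory (N=18) patients combined. Proteins measured by OLINK proximity extension, log2 normalized protein expression. Differences tested by t tests, ANOVA, Pearson correlation, P<0.05 significant.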

| Molecule | Fold Change, Decreased Expression from Baseline to Day 28 | Fold Change, Increased Expression from Baseline to Day 28 |
| --- | --- | --- |
| B1 | −1.3921 |  |
| B2 | −1.2841 |  |
| B3 | −1.2658 |  |
| B4 | −1.354 |  |
| B5 |  | 1.7741 and 1.757 |
| B6 | −1.3251 |  |
| B7 | −1.2548 |  |
| B8 | −1.6039 |  |
| B9 | −1.4021 |  |
| B10 | −1.2337 |  |
| B11 | −1.3504 |  |

Reference: US12099068B2, “Biomarkers for graft-versus-host disease” (Incyte Corporation, priority 2018, dated 2024)
